Results from PMC3568461.

System: CCCC[C@H](NC(=O)c1ccccc1)C(=O)N[C@@H](CCCCN)C(=O)N[C@@H](CCCNC(=N)N)C(=O)N[C@@H](CCCNC(=N)N)C(=O)Nc1ccc2c(C)cc(=O)oc2c1
Experiment: In vitro WNV protease assay with tetra-peptide substrate
Assay type: biochemical, West Nile virus
Conditions: other: tetra-peptide substrate; pH 9.5; 25.0 °C

WNV NS2B-NS3 protease (West Nile virus strain NY-99)
Km: 24.56 ± 1.43 µM
